Measurements as given in article PMC7881136.

Target: Kapβ2 (untagged, GST removed) (human) (UniProt Q92973)
Test: ITC; 10 μM Kapβ2 in the cell, 100 μM or 200 μM MBP-FUS protein in the syringe; 20 mM Tris–HCl, 150 mM NaCl, 10% glycerol, 2 mM BME; 20 °C; single class of binding sites, global analysis of duplicates or triplicates

Sequence of Kapβ2 (untagged, GST removed) (human) (Q92973 9-898): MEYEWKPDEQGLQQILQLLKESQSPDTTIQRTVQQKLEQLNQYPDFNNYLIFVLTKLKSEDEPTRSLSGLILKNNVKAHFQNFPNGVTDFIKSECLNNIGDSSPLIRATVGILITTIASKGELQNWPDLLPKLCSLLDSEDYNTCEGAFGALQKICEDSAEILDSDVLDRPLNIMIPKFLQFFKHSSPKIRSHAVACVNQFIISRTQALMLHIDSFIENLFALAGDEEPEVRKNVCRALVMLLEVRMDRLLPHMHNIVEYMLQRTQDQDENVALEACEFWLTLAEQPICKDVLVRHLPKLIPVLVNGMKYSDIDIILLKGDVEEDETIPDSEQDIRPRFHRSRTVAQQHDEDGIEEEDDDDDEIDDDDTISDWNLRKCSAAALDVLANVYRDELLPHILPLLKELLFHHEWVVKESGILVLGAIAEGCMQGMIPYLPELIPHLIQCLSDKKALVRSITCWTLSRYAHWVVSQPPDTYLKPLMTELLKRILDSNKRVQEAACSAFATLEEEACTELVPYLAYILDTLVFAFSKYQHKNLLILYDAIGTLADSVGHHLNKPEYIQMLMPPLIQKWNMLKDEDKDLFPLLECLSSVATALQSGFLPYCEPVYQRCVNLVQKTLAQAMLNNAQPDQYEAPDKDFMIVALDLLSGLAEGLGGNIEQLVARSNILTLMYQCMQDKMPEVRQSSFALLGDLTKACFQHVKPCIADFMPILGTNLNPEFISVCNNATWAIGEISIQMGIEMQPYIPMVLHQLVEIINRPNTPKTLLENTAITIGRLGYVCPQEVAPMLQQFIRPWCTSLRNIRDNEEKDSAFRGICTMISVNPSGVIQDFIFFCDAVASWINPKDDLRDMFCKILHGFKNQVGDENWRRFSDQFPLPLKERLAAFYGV

## MBP-FUS(453–500) (RGG3) (from UniProt P35637 453-500) (domain or fragment)
  Kd: 6 µM
